Publication PMC9929037

Biological target: nLUC-TaPYL-1D (Triticum aestivum (bread wheat))
Experiment: split reporter (BiFC, NanoBiT); LCI of cLUC-TaPP2C-7A with nLUC-TaPYL-1D in N. benthamiana leaves with a third protein co-expressed (TN1-GFP, tn1-GFP or GFP empty vector); relative luminescence, GFP EV combination set to 1

percent decrease of LUC intensity of cLUC-TaPP2C-7A/nLUC-TaPYL-1D against the GFP EV samples: > 50%
Substance: TN1-GFP (natural protein)
